Measured values from article PMC12810954, “Targeted computational design of an interleukin-7 superkine with enhanced folding efficiency and immunotherapeutic efficacy” (eLife, 2026).

Biological target: T1, recombinant murine IL-7 receptor alpha (mouse, UniProt P16872 21-239)
T1 construct: interleukin-7 receptor subunit alpha, mouse; Probably the extracellular domain (catalogue product); The SPR methods say only 'recombinant murine IL7Rα' without a supplier; also called IL7Rα; mIL-7Rα; source: bought: Sino Biological; not shown: polyhistidine, C-terminal, kept
T1 sequence (looked up): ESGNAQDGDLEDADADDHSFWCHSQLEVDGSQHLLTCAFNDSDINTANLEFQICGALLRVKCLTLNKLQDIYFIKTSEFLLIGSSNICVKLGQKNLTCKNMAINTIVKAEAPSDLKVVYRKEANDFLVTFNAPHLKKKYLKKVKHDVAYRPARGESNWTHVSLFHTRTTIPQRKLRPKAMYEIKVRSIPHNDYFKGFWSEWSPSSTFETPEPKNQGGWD
Experiment: SPR; murine IL7Rα immobilised on a CM5 chip by amine coupling (Rmax below 30); threefold serial dilutions of WT-IL7 and Neo-7 variants in HBS-EP+ at 50 µL/min, association 180 s, dissociation 600 s; Biacore T200
Settings: both partners purified

B1: recombinant WT-IL7, E. coli expressed and refolded (ligand, human, UniProt P13232 26-177, looked up)
chain: DCDIEGKDGKQYESVLMVSIDQLLDSMKEIGSNCLNNEFNFFKRHICDANKEGMFLFRAARKLRQFLKMNSTGDFDLHLLKVSEGTTILLNCTGQVKGRKPAALGEAQPTKSLEENKSLKEQKKLNDLCFLKRLLQEIKTCWNKILMGTKEH
notes: interleukin-7, human, wild type; The methods say only that a similar procedure as for Neo-7 was used
Question: With B1 as the binder, how does the Kd read?
Answer: Its Kd is 13.4 nM.

Question: What about the koff of the same binder?
Answer: Its koff is 0.0784 s⁻¹.

Question: What about the kon of the same binder?
Answer: Its kon is 5.86e+06 M⁻¹ s⁻¹.
